Article PMC6208734

B1: antibody B (antibody, V domains shown)
VH: EVKVEESGGGLVQPGGSMKLSCVVSGFTFSNYWVNWVRQSPEKGLEWVAQIRLKSDNYATHYEESVKGRFTISRDDSKSSVYLQMNNLRAEDSGIYYCTNWEDYWGQGTTLTVSS
VL: DIVLTQSPASLAVSLGQRATISCRASQSVSTSRYSYIHWYQQKPGQPPKLLIKYASNLESGVPARFSGSGSGTDFTLNIHPLEEEDAATYYCHHSWEIPLTFGAGTKLELK
B2: antibody A (antibody, V domains shown)
VH: EVHLVESGGALVKPGGSLKLSCAASGFSFSKYGMSWVRQTPDKRLEWVATISSSGSRTYYPDSVKGQFTISRDNAKNTLYLQMSSLKSEDTAMYYCSISWDGAMDYWGQGTSVTVSS
VL: DVLMTQTPLSLPVSLGDQASISCKSSQSIVHSNGNTYLEWYLQKPGQSPKLLVYKVSNRFSGVPDRFSGSGSGTDFTLKISRVEAEDLGTYYCFQGSLVPWAFGGGTKLEIK
B3: antibody F (antibody, V domains shown)
VH: EVQLVQSGAEVKKPGESLKISCKGSGYTFSNYWIEWVRQMPGKGLEWMGEILPGSDSIKYEKNFKGQVTISADKSISTAYLQWSSLKASDTAMYYCARRGNYVDDWGQGTLVTVSS
VL: EIVLTQSPGTLSLSPGERATLSCRSSQSLVHSNQNTYLHWYQQKPGQAPRLLIYKVDNRFSGIPDRFSGSGSGTDFTLTISRLEPEDFAVYYCSQSTLVPLTFGGGTKVEIK

What was measured:
[1] = biological target: AD-PHF Tau (paired helical filament Tau isolated from Alzheimer's disease brains) (human (endogenous in AD brain)); assay: SPR; AD-PHF fraction 11 amine-coupled to a CM5 chip (about 500 RU); full-length IgG 1-300 nM as analyte, 180 s injection, 1200 s dissociation; BIAcore T200, 25 °C; HBS-EP+ with additional 150 mM NaCl and 1.25% CM-Dextran; extrinsic affinity; 1:1 binding or bivalent analyte model
[2] = biological target: AD-PHF Tau (paired helical filament Tau isolated from Alzheimer's disease brains) (human (endogenous in AD brain))

Sequence of AD-PHF Tau (paired helical filament Tau isolated from Alzheimer's disease brains) (human (endogenous in AD brain)) (P10636 2-758): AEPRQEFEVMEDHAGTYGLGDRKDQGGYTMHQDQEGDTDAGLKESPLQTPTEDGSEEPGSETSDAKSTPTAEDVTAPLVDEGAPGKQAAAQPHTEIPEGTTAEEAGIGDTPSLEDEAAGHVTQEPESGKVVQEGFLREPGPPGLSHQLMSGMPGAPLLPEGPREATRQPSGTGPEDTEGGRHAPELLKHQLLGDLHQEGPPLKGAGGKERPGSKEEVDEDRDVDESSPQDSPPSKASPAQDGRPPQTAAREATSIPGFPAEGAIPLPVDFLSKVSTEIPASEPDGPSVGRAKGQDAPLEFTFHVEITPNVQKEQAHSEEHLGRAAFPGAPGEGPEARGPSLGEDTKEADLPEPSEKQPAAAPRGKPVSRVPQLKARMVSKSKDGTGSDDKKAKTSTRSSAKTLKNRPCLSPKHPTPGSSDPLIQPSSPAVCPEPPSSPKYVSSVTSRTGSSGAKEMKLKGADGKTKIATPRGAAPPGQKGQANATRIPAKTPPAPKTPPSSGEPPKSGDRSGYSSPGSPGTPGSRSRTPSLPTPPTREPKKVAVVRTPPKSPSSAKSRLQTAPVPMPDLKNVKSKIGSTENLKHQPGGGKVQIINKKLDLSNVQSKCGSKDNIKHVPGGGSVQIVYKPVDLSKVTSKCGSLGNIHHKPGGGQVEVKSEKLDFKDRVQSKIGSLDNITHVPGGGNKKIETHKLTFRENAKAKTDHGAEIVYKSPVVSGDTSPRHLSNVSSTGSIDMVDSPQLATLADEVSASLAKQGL

Row | Binder | Kd [1] | koff [1] | kon [1] | neutralisation of AD-PHF Tau seeding of HEK293 cells expressing P301S Tau (TR-FRET of aggregated Tau), antibody 0.1 to 300 nM; effect only at the highest doses [2]
1 | B1 | 3.1 nM | 0.000117 s⁻¹ | 40000 M⁻¹ s⁻¹ | 74%
2 | B2 | 0.12 nM | 2.5e-05 s⁻¹ | 230000 M⁻¹ s⁻¹ | 
3 | B3 | 25.8 nM | 0.00196 s⁻¹ | 730000 M⁻¹ s⁻¹ | 
